Results: patent publication US20220073643A1 (NANJING GENSCRIPT BIOTECH, published 2022)
Substitutions are numbered along the chain they refer to. “And” between values parts separate entries of the source, which are not always exact repeats. Equal values may be shown once. Each block holds one binder with its values, some of them ahead of it.

Target: human Claudin18.2 (human)
Assay: cell-based or functional assay

B4: 422F4B6 (antibody, V domains shown)
VH: DVQLVESGGGLVQPGGSRKLSCAASGFSFSSFGMHWVRQAPEKGLEWVAYISSGSSPIYYADTVKGRFIISRDNPKNTLFLQMTSLRSEDTAMYFCARIYYGNSFAYWGQGTLVTVSA
VL: DIVMTQSPSSLTVTAGEKVTMSCKSSQTLLNSGNQKNYLTWYQQKPGQPPKLLIYWASTRESGVPDRFTGSGSGTDFTLTISSVQAEDLAVYYCQNAYSYPLTFGSGTKLELK
CDC % Relative activity: 31.6%
CDC EC50: 6.03 µg/mL

B5: 430B3F1 (antibody, V domains shown)
VH: DVQLVESGGGLVQPGGSRKLSCAASGFTFSGFGMHWIRQTPEKGLEWVAYISSGGRPIYYADTVQGRFTISRDNPKNTLFLQMTSLRSEDTAMYFCARFYYGNSFDHWGQGTLVTISS
VL: B4 VL with S10F, T28S, V91L, Y100F, S106A
CDC % Relative activity: 70.2%
CDC EC50: 2.87 µg/mL

B7: 422E8F9 (antibody, V domains shown)
VH: B5 VH with G55S, I116V
VL: B4 VL with S10F, T28S, V91L, Y100F, S106A
CDC % Relative activity: 89.2%
CDC EC50: 2.14 µg/mL

B8: 423B2B5 (antibody, V domains shown)
VH: B4 VH with S28T, A61S, I69T, T84S, A106D, Y107H
VL: B4 VL with S22N, T28S, A97D, S106A
CDC % Relative activity: 6.38%
CDC EC50: 29.9 µg/mL

B9: 421H4G3 (antibody, V domains shown)
VH: B5 VH with T28S, M34L, G55S, Q65K, Y101F, I116V, S118T
VL: B4 VL with S10F, K24R, T28S, K36R, S82N, V91L, Y100F, S106A
CDC % Relative activity: 65.9%
CDC EC50: 2.89 µg/mL

B14: 203A6D5 (antibody, V domains shown)
VH: QVQLKQSGPGLVQPSQSLSITCTVSGFSLTRYGVHWVRQSPGKGLEWLGVIWSGGNTDYNAAFISRLNIRKDNSKSQVFFKMNSLKPNDTAIYYCARAAYFGNSFDYWGQGTTLTVSS
VL: B4 VL with T12P, T28S, E61D, A97N, S99I, S106A
CDC % Relative activity: 571%
CDC EC50: 0.336 µg/mL

B15: 226A4B5 (antibody, V domains shown)
VH: QAYLQQSGAELVRSGASVRMSCKASGFTFTSYNIHWVKQTPGQGLEWIGYIYPGSGGSNYNQKFMGKATLTADTSSSTVYMQISSLTSEDSAVYFCATGRGFAYWGQGTLVTVSA
VL: B4 VL with T28S, L30F, W56R, A97D, S106T
CDC % Relative activity: 73%
CDC EC50: 1.78 µg/mL

B16: 429H6C5 (antibody, V domains shown)
VH: DVQLVESGGGLVQPGGSRKLSCAASGFTFSSFGMHWVRQAPEKELEWVAYISSGSSTIYYAHTVKGRFTISRDNPKNTLFLRMTSLGSEDTAMYYCVRFYYGNSFVNWGQGTLVTVSA
VL: B4 VL with V13A, T28S, L52M, T69A, S99I, S106A, K109R
CDC % Relative activity: 331%
CDC EC50: 0.607 µg/mL

B18: 207F8G5 (antibody, V domains shown)
VH: B15 VH with R19K, Y52S, S55N, Q62L, M65K, G66D, A72S, D73A, V79A
VL: B4 VL with A15P, T28S, L30F, T40I, W56R, E61D, S83N, V91I, A97D, S106A
CDC % Relative activity: 627%
CDC EC50: 0.305 µg/mL

B21: 219F9B8 (antibody, V domains shown)
VH: B15 VH with F27Y, I34M, S55N, G57H, S58T, M65K, V79A
VL: B4 VL with T28S, W56R, A97D, S106V
CDC % Relative activity: 603%
CDC EC50: 0.318 µg/mL

B22: 213B10A4 (antibody, V domains shown)
VH: B15 VH with L4V, R19K, K23R, F27Y, I34M, S55N, S58T, N59Y, M65K, V79A
VL: B4 VL with T28S, W56R, S73F, A97D, S106A
CDC % Relative activity: 121%
CDC EC50: 1.59 µg/mL

B23: 420H3H9 (antibody, V domains shown)
VH: B16 VH with E44G, T63S, R82Q, V97A, V106A, N107Y
VL: B4 VL with M21L, T28S, L52M, V91D, S99T, S106A, K109R
CDC % Relative activity: 458%
CDC EC50: 0.416 µg/mL

B24: 232C5E3 (antibody, V domains shown)
VH: QAYLQQSGAELVRSGASVKMSCKASGYTFTSHNIHWIKQTPGKGLEWIGYIYPGNGGTNYNQKFKAKATLTADTSSSTAYMQISSLTSEDSAVYFCARDYYGNSFAYWGQGTLVTVSA
VL: B4 VL with V3M, V13E, T20S, T28S, T69S, A97G, S99R, Y100F, L102F, S106A
CDC % Relative activity: 226%
CDC EC50: 0.575 µg/mL

B28: 424G9G3 (antibody, V domains shown)
VH: QVQLQQSGPEVVRPGASVKMSCKGSGYTLNNFWMHWVKQRPGQGLEWIGMIDTSNGETRLNQIFKDKATLTVDKSSKTAYMQLSSLTSEDSAVYYCAPYGNFADWGQGTTLTVSS
VL: DVLLTQTPLSLPVSLGDQASISCRSSQSIVYGNGNTYLEWYLQKPGQSPKLLIYKVSSRFSGVPDRFSGSGSGTDFTLKITKVEAEDLGVYYCFQGSHVPFTFGSGTKLEIK
CDC % Relative activity: 9.38%
CDC EC50: 20.3 µg/mL

Next, values leading:

CDC % Relative activity: 52.6%
CDC EC50: 3.27 µg/mL
B1: 420F12G8 (antibody, V domains shown)
VH: B5 VH with T28A, G55S, Q65K, A97V, I116V, S118A
VL: B4 VL with S10F, S22T, K24R, T28N, Y55S, A86P, V91L, Y100F, L102F, S106A

CDC % Relative activity: 164%
CDC EC50: 1.23 µg/mL
B2: 429G4E9 (antibody, V domains shown)
VH: B4 VH with S28T, I69T, R98T, I99F
VL: B4 VL with P46S, L102V, L110V

CDC % Relative activity: 32.4%
CDC EC50: 6.21 µg/mL
B3: 426D9F6 (antibody, V domains shown)
VH: B5 VH with G55S, Q65K, I116V, S118A
VL: B4 VL with S10F, T28S, K36R, I81V, V91L, Y100F, S106A

CDC % Relative activity: 72.4%
CDC EC50: 2.63 µg/mL
B6: 420G10G3 (antibody, V domains shown)
VH: B5 VH with P41A, G55S, I116V, S118A
VL: B4 VL with S10F, T28S, V91L, Y100F, S106A

CDC % Relative activity: 63%
CDC EC50: 3.02 µg/mL
B10: 425B3D5 (antibody, V domains shown)
VH: B5 VH with G55S, I116V
VL: B4 VL with S10F, T28S, V91L, Y100F, S106A

CDC % Relative activity: 96.6%
CDC EC50: 2.08 µg/mL
B11: 425C6D3 (antibody, V domains shown)
VH: B5 VH with G55S, I116V
VL: B4 VL with S10F, T28S, V91L, Y100F, S106A

CDC % Relative activity: 80%
CDC EC50: 2.51 µg/mL
B12: 426H6E11 (antibody, V domains shown)
VH: B5 VH with G55S, I116V
VL: B4 VL with S7F, S10F, V91L, Y100F, S106A, K109N

CDC % Relative activity: 88%
CDC EC50: 1.48 µg/mL
B13: 231H4G11 (antibody, V domains shown)
VH: B24 VH with I37V, K43Q, Y52S, G57Y, K65R, A66G, A97T
VL: DIVMTQSPSSLTEKAGERVSMSCKSSQSLFNSGSQKNYLTWYQQKPGQPPKLLIYWASTRESGVPDRFSGSGSGTDFTLTISSVQAEDLAVYYCQNNYWFPFTFGAGTKLELK

CDC % Relative activity: 195%
CDC EC50: 0.811 µg/mL
B17: 182D10F1 (antibody, V domains shown)
VH: B15 VH with R19K, F27Y, T30S, I34M, S55N, S58T, M65K, V79A, A97L, A103T
VL: B4 VL with S22N, T28S, L30F, W56R, A97D, S106V

CDC % Relative activity: 707%
CDC EC50: 0.271 µg/mL
B19: 217D9G2 (antibody, V domains shown)
VH: B15 VH with R19K, Y52S, S55N, Q62L, K63N, M65K, G66D, D73A, S77T, V79A
VL: B4 VL with A15P, K24R, T28S, L30F, T40I, W56R, E61D, S83N, A97D, S106A

CDC % Relative activity: 83.7%
CDC EC50: 1.55 µg/mL
B20: 231C11E9 (antibody, V domains shown)
VH: EVMLVESGGGLVKPGGSLKLSCAASGFTFNNYVMCWVRQTPEKRLEWVATISSGNFYTYYPDSVKGRFTISRDNAKNTLYLQMSSLRSEDTAIYYCASLGRGNALDNWGQGTSVTVSS
VL: B4 VL with S9A, G16K, K24R, T28S, A97D, L102F, L112I

CDC EC50: 0.278 µg/mL and 0.259 µg/mL
B25: 222B6G5 (antibody, V domains shown)
VH: QTYLQQSGAELVRSGASVKMSCKASGYTFTSYNIHWVKQTPGQGLEWIGYISPGNGGTYYNLKFKDKATLTTATSSSTAYMQISSLTSEDSAVYFCATGRGFAYWGQGTLVTVSA
VL: B4 VL with A15P, T28S, L30F, T40I, W56R, E61D, S83N, A97D, S106A

CDC % Relative activity: 48.8%
CDC EC50: 3.9 µg/mL
B26: 420H7E6 (antibody, V domains shown)
VH: DVQLVESGGGLVQPGGSRKLSCVTSGFTFSSFGMHWIRQAPEKGLEWVAFISGGGSPIFYADSVKGRFTVSRDNPKNTLFLQMTGLRSEDTAMYFCARFYFGNSFAYWGQGTLVTVSA
VL: B4 VL with T5A, S22N, K24R, T28S, L30F, D66V, N96T, A97G, Y98F, S106P

CDC % Relative activity: 56.2%
CDC EC50: 3.39 µg/mL
B27: 423C10E1 (antibody, V domains shown)
VH: B26 VH with I37V
VL: DIVMTQSPSSLTVTAGEKVTMNCRSSQSLFNSGNQKNYLTWYQQKPGQSPKLLIYWASTRESGVPVRFTGSGSGTDFTLTISSVQAEDLAVYYCQTSFNYPLTFGPGTKLELK
